From the supplement of paper PMC9170038

Key:
MS2 coat protein [1] = experiment: apparent KD of MS2 coat protein, switch OFF state (with FMN for OFF switches, without FMN for ON switches); designed switch direction (-1 OFF switch, 1 ON switch): 1; higher = weaker reporter binding; conditions: FMN input: 0 or 200 uM; Eterna round: R93 (includes R88 designs)
Summary of the method: (§1)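 With or without constant ligand, designed RNA switches in 100 mM Tris-HCl pH 7.5, 80 mM KCl and 4 mM MgCl2 were titrated with SNAP-549-labelled MS2 coat protein. Concentrations went up in twofold steps from 0.7 or 1.5 nM to 3 µM. The switches had been transcribed on-chip from Illumina sequencing clusters, and apparent KD is the per-design median of normalised cluster binding-curve fits.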

MS2 coat protein [2] = experiment: apparent KD of MS2 coat protein, switch ON state; designed switch direction (-1 OFF switch, 1 ON switch): 1; higher = weaker reporter binding; conditions: FMN input: 0 or 200 uM; Eterna round: R93 (includes R88 designs)
Summary of the method: as §1

Row | Sequence | apparent KD of MS2 coat protein (MS2 coat protein [1]) [µM] | apparent KD of MS2 coat protein (MS2 coat protein [2]) [µM]
1 | UGGAAACAUGAGGAUCACCCAUGUAAAAGGUGGUCAGGAUAUGCGAAAAGAAAAAGAAAAGUAGAAGGGACAAGAA [Mod of Eli's Mod] | 0.0678 | 0.0659
2 | UAAAAACAUGAGGAUCACCCAUGUGAGAACAUGGGAGGAUAUACGAAGACGAAAGUCGAAGUAGAAGGCCUAAAAU [Mat - Same State 1 - Mod - D172] | 0.0393 | 0.145
3 | GAAAAACAUGAGGAUCACCCAUGUGUAAAUAUGGGAGGAUAUACAAAGACGAAAGUCAAAGUAGAAGGCCUAAAAG [Mat - Same State 1 - Eli mod - D5] | 0.19 | 0.0232
4 | AAAAAACAUGAGGAUCACCCAUGUAAAAAAAACACAGGAUAUCCCUUUUUUAAAUGAAAAGGAGAAGGGUGAAAAA [Nob's Hobby 9 - Jieux - Same State 1] | 0.024 | 0.0226
5 | GAAAAACAUGAGGAUCACCCAUGUAAAAAUAUGGGAGGAUAUUCAAAGACGAAAGGGAAAGAAGAAGGCCUAAAAG [Garnet 4] | 1.3 | 0.0827
6 | AAAUGACAUGAGGAUCACCCAUGUCCACCAAACGGAGGAUAUUGGGCGGAAAAACGUUGUUAAGAAGGCCGAAAAA [SS1-1.0] | 0.0737 | 0.143
7 | GAAAAACAUGAGGAUCACCCAUGUAGAGAUAUGGGAGGAUAUACGAAGACGAAAGACGAUGUAGAAGGCCUAAAAG [Garnet 59] | 0.234 | 0.0804
8 | GAUAUACAUGAGGAUCACCCAUGUUAGGUGGGUCAAGGAUAUUGAUAUAAAUAAAAAACUCGAGAAGGUGAAUAAA [JR_SS001_Sub020] | 0.153 | 0.298
9 | AAAUAAAAAAAAAAGGAUAUUCAUGUGAAAACAUGAGGAUCACCCAUGUAAAAAAAUAAAAAUAAAAAGAAGGAAAAAUAAAAAA [SS2: 86 No MS2] | 0.841 | 0.571
10 | AAUAAACAUGAGGAUCACCCAUGUAAUAAUAUGGGAGGAUAUACUAAAAUAAAAUAAAAUGUAGAAGGCCUAAUAA [LROPPY Same State 1 - v05_deltaG=1.05 break up the As] | 0.159 | 0.0355
11 | AUAAAACAUGAGGAUCACCCAUGUAGAAACAUGGGAGGAUAUACAAAGACGAAAGUCAAAGUAGAAGGCCUAAAAG [Meechl MS2 SS1 2] | 0.0673 | 0.104
12 | AGGAAACAUGAGGAUCACCCAUGUAAAAAUAUGGGAGGAUAUACGAAGACAAAAAAAAAAGUAGAAGGCCUAAAAG [Garnet 12] | 0.266 | 0.0652
13 | GAAAAACAUGAGGAUCACCCAUGUAGAAAUAUGGGAGGAUAUACAAAGACGAAAGUCAAAGUAGAAGGCCUUAAAG [JL S1 M-MoE mod 1 In the Red] | 0.0549 | 0.0283
14 | AAAAAACAUGAGGAUCACCCAUGUAAAAAUAUGGGAGGAUAUGGAAACACGAAAGUGAAACCAGAAGGCUCAAAAG [77%, Mat - Mod of Eli, 17] | 0.0784 | 0.0212
15 | AGAAAUAAAAGCGAGGAUAUCCAAAAGAAAACAUGAGGAUCACCCAUGUAAAAGAAAAUAAAAUGGGAGAAGGCGCAAAAUAAAG | 0.0273 | 0.0147
16 | AUAAAAUAAAAGGAGGAUAUCCAUAAUAAAACAUGAGGAUCACCCAUGUAAAAAAGAAGAAAAUGGGAGAAGGCCUAAAAUAAAU [SS2 M 27] | 0.0236 | 0.0114
17 | GAAGACAUAGUUCAGGAUAUAGGAAUAGUCACAUGAGGAUCACCCAUGUGCAUUUAUAUGCGCACUUAGAAGGGAGGUAGUUAUA [SameState2 Malc#22] | 0.0264 | 0.0322
18 | AGAAAUAAACCGAAGGAUAUCUAAACCUAAACAUGAGGAUCACCCAUGUAAAAGAAAAUAAAAUGGGAGAAGGUCGGAAAUAAGA [Designing denovo 12] | 0.0299 | 0.0175
19 | AGGAGACAUGAGGAUCACCCAUGUGCACGGUGAAGAGGAUAUGUGCGUGGAGAGACACGGACAGAAGGCUUAAGAA [JR_SameState1_Sub5] | 0.0389 | 0.023
20 | AUAAAAUAAACUGAGGAUAUCUAUAAUAAAACAUGAGGAUCACCCAUGUUUAAACAAAGAUCAUGGGAGAAGGCAGAAAAUAAAU [SS2 M 38] | 0.0366 | 0.0378
21 | GAAAAACAUGAGGAUCACCCAUGUGUAAAUAUGGAAGGAUAUACAAAGACGUAAGUCAAAGUAGAAGGUCUAAAAG [Mat - Same State 1 - Eli mod - D17] | 0.0235 | 0.0188

Row | Sequence | apparent KD of MS2 coat protein (MS2 coat protein [1]) [µM] | apparent KD of MS2 coat protein (MS2 coat protein [2]) [µM]
22 | GAAGACAUAGUUCAGGAUAUGGUAAUAGUCACAUGAGGAUCACCCAUGUGCAUUUAUAUGCGCGAUCAGAAGGGAGGUAGAUAAG [Mat - Same state - Malcolm Mod - D116] | 0.0183 | 0.0186
23 | AACAUACAUGAGGAUCACCCAUGUUCCGGCAGGUCAGGAUAUUCAUCGAAAGUGUUAUAAGAAGAAGGGACAUAAA [JR_SS001_Sub011] | 0.0489 | 0.034
24 | AGAAGACAUGAGGAUCACCCAUGUGGGAAUAUGGGAGGAUAUACAAAGACGAGAGUCAGAGUAGAAGGCCUAGGAU [salish99-SS1-092] | 0.118 | 0.0373
25 | CGCGAACAUGAGGAUCACCCAUGUGAAAAACACAGAGGAUAUGUCGCAUGCGUGUAAAAGACAGAAGGCUGUCGCG [mod of top voted: #3] | 0.084 | 0.0197
26 | ACUAUACAUGAGGAUCACCCAUGUCAGGUGGGACUAGGAUAUCAUAAGCCAGAGUAAGUAUGAGAAGGAGUAGAAA [JR_SS001_Sub305] | 0.0747 | 0.0732
27 | AAUACAAAUAGUCAGGAUAUCAAAAAUAAGACAUGAGGAUCACCCAUGUAAUAAGUAAAAGUAAAUGAGAAGGGACAGGGUGAAA [JR_SS002_Sub401] | 0.0592 | 0.53
28 | AAAAAACAUGAGGAUCACCCAUGUAGAAACAUGGGAGGAUAUACAAAGACGAAAGUCAAAGUAGAAGGCCUAAAAA [Mat - Same State 1 - Mod - D157] | 0.0335 | 0.0777
29 | AGAAAUAAAAGACAGGAUAUCCAAACUCAAACAUGAGGAUCACCCAUGUAAAAGAAAAUAAAGUGGGAGAAGGGUCAAAAUAAGA [Jieux modified + C segment V4] | 0.0331 | 0.0126
30 | GGGACCAGCGUCAAGGAUAUUCAUAUAUAAACAUGAGGAUCACCCAUGUAGGCCAGGAGGCCUUGGGAGAAGGUGAGUUGGCUCG [Xegedibe] | 0.249 | 0.0405
31 | AGGAAACAUGAGGAUCACCCAUGUAAAAGGUGGGUAGGAUAUGCGAAAAGAAAAAGAAAAGCAGAAGGACCAAGAA [62%, Something completely different, 1] | 0.108 | 0.0387
32 | GAAGACAUAGUUCAGGAUAUAGGAAUAGUCACAUGAGGAUCACCCAUGUGCAUUUAUAUGCGCGCUUAGAAGGGAGGUAGAUAAU [Mat - Same state - Malcolm Mod - D119] | 0.0212 | 0.0245
33 | GUGUAUAGAAUCGAGGAUAUCCUGUAAUGCACAUGAGGAUCACCCAUGUAAGAGCGAGAAUAAUGGGAGAAGGCGAGUUAUCGGU [JR_SS002_Sub1710] | 0.0461 | 0.0275
34 | GCAAAACAUGAGGAUCACCCAUGUCAACAAAAUCAAGGAUAUGAGCCAGCAAUGCCGGCAUCAGAAGGUGAACCUU [Enqule] | 0.0685 | 0.0532
35 | CAGAGACAUGAGGAUCACCCAUGUAGGAUUAUGGGAGGAUAUACAAAGACGAGAGUCAGAGUAGAAGGCCUAGGAA [salish99-ss1-141] | 0.0576 | 0.0211
36 | GAAAAACAUGAGGAUCACCCAUGUAGAAAUAUGGGAGGAUAUACAAAGACGAAAGUCAAAGUAGAAGGCCUGAAAG [77%, Mat - Mod of Eli, 1] | 0.136 | 0.0271
37 | AAGAAACAUGAGGAUCACCCAUGUGAGAAUAACACAGGAUAUGCGAAAAGAAACAAAGAAGCAGAAGGGUGAAGAA [Mat - Same State 1 - Tesla mod - 54] | 0.0403 | 0.02
38 | AGGAAACAUGAGGAUCACCCAUGUAAAAGGUGGUUAGGAUAUGCGAAAAGAAAAAGAAAAGCAGAAGGGACAAGAA [Inspired by JR's SameStare1_sub2] | 0.415 | 0.237
39 | AAGAAACAUGAGGAUCACCCAUGUAAGAUAAACACAGGAUAUGCGAAAGAAAUAAAGAAAGCAGAAGGGUGAAGAA [Mat - Same State 1 - Tesla mod - D147] | 0.0268 | 0.0143
40 | CGGAGACAUGAGGAUCACCCAUGUGAGAAGAGGCGAGGAUAUGGAAAUAAAGAAGAGAAAUGAGAAGGCGCGAGCC [salish99-SS1-082] | 0.0363 | 0.0406
41 | UGAAGACAUGAGGAUCACCCAUGUGGGAUUAUGGGAGGAUAUACAAAGACGAGAGUCAGAGUAGAAGGCCUAGGAU [salish99-ss1-117(!)] | 0.0579 | 0.0314
42 | UAAAAACAUGAGGAUCACCCAUGUGAGAACAUGGGAGGAUAUACAAAGACGAAAGUCAAAGUAGAAGGCCUAAAAU [Mat - Same State 1 - Mod - D170] | 0.0159 | 0.0751
